Experimental data taken from publication PMC2805098 (Biochemistry, 2009).
Read-outs that look alike come from different tables or passages of the source.

B1: Phe223Leu (protein, UniProt P0AEZ1 1-296, looked up, variant F223L)
5,10-methylenetetrahydrofolate …: MSFFHASQRDALNQSLAEVQGQINVSFEFFPPRTSEMEQTLWNSIDRLSSLKPKFVSVTYGANSGERDRTHSIIKGIKDRTGLEAAPHLTCIDATPDELRTIARDYWNNGIRHIVALRGDLPPGSGKPEMYASDLVTLLKEVADFDISVAAYPEVHPEAKSAQADLLNLKRKVDAGANRAITQFFFDVESYLRFRDRCVSAGIDVEIIPGILPVSNFKQAKKLADMTNVRIPAWMAQMFDGLDDDAETRKLVGANIAMDMVKILSREGVKDFHFYTLNRAEMSYAICHTLGVRPGL
B2: Phe223Ala: Phe223Ala mutant of histidine-tagged E. coli methylenetetrahydrofolate reductase (protein, UniProt P0AEZ1 1-296, looked up, variant F223A)
5,10-methylenetetrahydrofolate …: MSFFHASQRDALNQSLAEVQGQINVSFEFFPPRTSEMEQTLWNSIDRLSSLKPKFVSVTYGANSGERDRTHSIIKGIKDRTGLEAAPHLTCIDATPDELRTIARDYWNNGIRHIVALRGDLPPGSGKPEMYASDLVTLLKEVADFDISVAAYPEVHPEAKSAQADLLNLKRKVDAGANRAITQFFFDVESYLRFRDRCVSAGIDVEIIPGILPVSNFKQAKKAADMTNVRIPAWMAQMFDGLDDDAETRKLVGANIAMDMVKILSREGVKDFHFYTLNRAEMSYAICHTLGVRPGL
modifications: histidine tag
B3: Wild-type: wild-type histidine-tagged E. coli methylenetetrahydrofolate reductase (protein, UniProt P0AEZ1 1-296, looked up)
5,10-methylenetetrahydrofolate …: MSFFHASQRDALNQSLAEVQGQINVSFEFFPPRTSEMEQTLWNSIDRLSSLKPKFVSVTYGANSGERDRTHSIIKGIKDRTGLEAAPHLTCIDATPDELRTIARDYWNNGIRHIVALRGDLPPGSGKPEMYASDLVTLLKEVADFDISVAAYPEVHPEAKSAQADLLNLKRKVDAGANRAITQFFFDVESYLRFRDRCVSAGIDVEIIPGILPVSNFKQAKKFADMTNVRIPAWMAQMFDGLDDDAETRKLVGANIAMDMVKILSREGVKDFHFYTLNRAEMSYAICHTLGVRPGL
modifications: histidine tag

How the values were obtained:
[1] = Midpoint potential determination, xanthine/xanthine oxidase reducing system; format: physicochemical, Escherichia coli; details: two-electron, pH 7.2, 25 °C, reference dye phenosafranine
[2] = pH 7.2, 25 °C; cited from earlier work

| Molecule | Midpoint Potential [1] [mV] | Midpoint Potential [2] [mV] |
| --- | --- | --- |
| B1 | −240 ± 3 | – |
| B2 | −236 ± 3 | – |
| B3 | – | −237 ± 4 |
